B1: ATGL (PNPLA2, patatin-like phospholipase domain-containing protein 2), human, full length / CGI-58 (ABHD5, 1-acylglycerol-3-phosphate O-acyltransferase ABHD5), human (parent)
chain 1: MFPREKTWNISFAGCGFLGVYYVGVASCLREHAPFLVANATHIYGASAGALTATALVTGVCLGEAGAKFIEVSKEARKRFLGPLHPSFNLVKIIRSFLLKVLPADSHEHASGRLGISLTRVSDGENVIISHFNSKDELIQANVCSGFIPVYCGLIPPSLQGVRYVDGGISDNLPLYELKNTITVSPFSGESDICPQDSSTNIHELRVTNTSIQFNLRNLYRLSKALFPPEPLVLREMCKQGYRDGLRFLQRNGLLNRPNPLLALPPARPHGPEDKDQAVESAQAEDYSQLPGEDHILEHLPARLNEALLEACVEPTDLLTTLSNMLPVRLATAMMVPYTLPLESALSFTIRLLEWLPDVPEDIRWMKEQTGSICQYLVMRAKRKLGRHLPSRLPEQVELRRVQSLPSVPLSCAAYREALPGWMRNNLSLGDALAKWEECQRQLLLGLFCTNVAFPPEALRMRAPADPAPAPADPASPQHQLAGPAPLLSTPAPEARPVIGALGL
chain 2: MAAEEEEVDSADTGERSGWLTGWLPTWCPTSISHLKEAEEKMLKCVPCTYKKEPVRISNGNKIWTLKFSHNISNKTPLVLLHGFGGGLGLWALNFGDLCTNRPVYAFDLLGFGRSSRPRFDSDAEEVENQFVESIEEWRCALGLDKMILLGHNLGGFLAAAYSLKYPSRVNHLILVEPWGFPERPDLADQDRPIPVWIRALGAALTPFNPLAGLRIAGPFGLSLVQRLRPDFKRKYSSMFEDDTVTEYIYHCNVQTPSGETAFKNMTIPYGWAKRPMLQRIGKMHPDIPVSVIFGARSCIDGNSGTSIQSLRPHSYVKTIAILGAGHYVYADQPEEFNQKVKEICDTVD

Variants of: B1
Assay: LUMIER: Protein A-ATGL variant and firefly luciferase-partner co-expressed in HEK293T, lysates immunoprecipitated on IgG-coated plates, co-precipitated partner measured as luciferase luminescence
Conditions: with CGI-58 (ABHD5, 1-acylglycerol-3-phosphate O-acyltransferase ABHD5), transient co-transfection, IgG-coated LUMITRAC plates, 2 h at 4 °C, three PBS washes, Bright-Glo luciferase reagent, triplicates per assay, two …, scale: log2 fold change of co-immunoprecipitated luminescence relative to wild-type ATGL within each experiment

| Variant | screen value (parent: 0.32, not graded) | screen value (parent: 0.45, not graded) |
| --- | --- | --- |
| chain 1 MFPREKTWNISFAGCGFLGVYYVGVASCLREHAPELVANATHIYGASAGALTATALVTGVCLGEAGAKFIEVSKEARKRFLGPLHPSFNLVKIIRSFLLKVLPADSHEHASGRLGISLTRVSDGENVIISHFNSKDELIQANVCSGFIPVYCGLIPPSLQGVRYVDGGISDNLPLYELKNTITVSPFSGESDICPQDSSTNIHELRVTNTSIQFNLRNLYRLSKALFPPEPLVLREMCKQGYRDGLRFLQRNGLLNRPNPLLALPPARPHGPEDKDQAVESAQAEDYSQLPGEDHILEHLPARLNEALLEACVEPTDLLTTLSNMLPVRLATAMMVPYTLPLESALSFTIRLLEWLPDVPEDIRWMKEQTGSICQYLVMRAKRKLGRHLPSRLPEQVELRRVQSLPSVPLSCAAYREALPGWMRNNLSLGDALAKWEECQRQLLLGLFCTNVAFPPEALRMRAPADPAPAPADPASPQHQLAGPAPLLSTPAPEARPVIGALGL [chain 1 F35E] | 0.146 | 0.336 |
| chain 1 MFPREKTWNISFAGCGFLGVYYVGVASCLREHAPALVANATHIYGASAGALTATALVTGVCLGEAGAKFIEVSKEARKRFLGPLHPSFNLVKIIRSFLLKVLPADSHEHASGRLGISLTRVSDGENVIISHFNSKDELIQANVCSGFIPVYCGLIPPSLQGVRYVDGGISDNLPLYELKNTITVSPFSGESDICPQDSSTNIHELRVTNTSIQFNLRNLYRLSKALFPPEPLVLREMCKQGYRDGLRFLQRNGLLNRPNPLLALPPARPHGPEDKDQAVESAQAEDYSQLPGEDHILEHLPARLNEALLEACVEPTDLLTTLSNMLPVRLATAMMVPYTLPLESALSFTIRLLEWLPDVPEDIRWMKEQTGSICQYLVMRAKRKLGRHLPSRLPEQVELRRVQSLPSVPLSCAAYREALPGWMRNNLSLGDALAKWEECQRQLLLGLFCTNVAFPPEALRMRAPADPAPAPADPASPQHQLAGPAPLLSTPAPEARPVIGALGL [chain 1 F35A] | -0.0512 | -0.207 |
| chain 1 MFPREKTWNISFAGCGFLGVYYVGVASCLREHAPFLVANATHIYGASAGALTATALVTGVCLGEAGAKFIEVSKEARKRFLGPLHPSFNLVKIIRSFLLKVLPADSHEHASGRLGISLTRVSDGENVIISHFNSKDELIQANVCSGFIPVYCGLIPPSLQGVRYVDGGISDNLPLYELKNTITVSPFSGESDICPQDSSTNIHELRVTNTSIQFNLRNLYRLSKALFPPEPLVLREMCKQGYRDGLRFLQRNGLLNRPNPLLALPPARPHGPEDKDQAVESAQAEDYSQLPGEDHILEHLPARLNEALLEACVEPTDLLTTLSNMLPVRLATAMMVPYTLPLESALSETIRLLEWLPDVPEDIRWMKEQTGSICQYLVMRAKRKLGRHLPSRLPEQVELRRVQSLPSVPLSCAAYREALPGWMRNNLSLGDALAKWEECQRQLLLGLFCTNVAFPPEALRMRAPADPAPAPADPASPQHQLAGPAPLLSTPAPEARPVIGALGL [chain 1 F348E] | -0.83 | -1.02 |

Source: article PMC10958042
